{
  "source": "paper PMC7042059",
  "origin": "cited, not measured here",
  "target": "Pyruvate kinase M2 (Homo sapiens) (UniProt P14618)",
  "conditions": "cited from earlier work",
  "data": [
    {"substance": "Pyruvate kinase M2 (from UniProt P14618)", "values": [
      {"measurement": "Kd", "result": 1, "unit": "µM"}
    ]}
  ]
}
